Measurements: paper PMC2602864

Molecular target: EcoR124I core methyltransferase (HsdM2HsdS1) (not stated (hsd genes of the IncFIV plasmid R124, carried in E. coli)) (UniProt P10484)
Chain of UniProt P10484 (P10484 whole entry, chain 1 of 2): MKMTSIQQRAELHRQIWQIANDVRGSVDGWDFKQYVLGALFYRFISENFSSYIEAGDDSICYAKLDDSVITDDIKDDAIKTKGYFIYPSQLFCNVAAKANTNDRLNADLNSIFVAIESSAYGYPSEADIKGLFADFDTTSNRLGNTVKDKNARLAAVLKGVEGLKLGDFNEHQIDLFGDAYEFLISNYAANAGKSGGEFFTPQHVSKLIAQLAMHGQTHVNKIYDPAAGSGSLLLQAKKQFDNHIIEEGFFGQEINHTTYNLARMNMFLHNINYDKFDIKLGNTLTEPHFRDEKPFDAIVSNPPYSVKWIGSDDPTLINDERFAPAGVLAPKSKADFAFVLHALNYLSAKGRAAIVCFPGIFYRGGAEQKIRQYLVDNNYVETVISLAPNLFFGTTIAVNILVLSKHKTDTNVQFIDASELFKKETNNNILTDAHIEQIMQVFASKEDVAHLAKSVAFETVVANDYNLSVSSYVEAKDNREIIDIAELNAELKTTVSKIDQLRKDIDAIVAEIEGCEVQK
Chain of UniProt P10484 (P10485 whole entry, chain 2 of 2, further chain): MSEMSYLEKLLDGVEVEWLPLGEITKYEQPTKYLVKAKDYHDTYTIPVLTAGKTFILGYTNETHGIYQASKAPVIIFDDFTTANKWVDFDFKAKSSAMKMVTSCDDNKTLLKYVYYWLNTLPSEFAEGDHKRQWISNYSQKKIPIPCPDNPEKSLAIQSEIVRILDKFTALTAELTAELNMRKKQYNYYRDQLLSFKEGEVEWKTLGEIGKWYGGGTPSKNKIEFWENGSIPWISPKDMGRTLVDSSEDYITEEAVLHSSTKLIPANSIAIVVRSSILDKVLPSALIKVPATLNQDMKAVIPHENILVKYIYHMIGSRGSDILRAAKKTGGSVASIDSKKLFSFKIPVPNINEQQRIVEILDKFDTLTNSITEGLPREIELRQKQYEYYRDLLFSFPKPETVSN

B1: EcoR124I HsdR subunit, wild type (enzyme)
chain: MTHQTHTIAESNNFIVLDKYIKAEPTGDSYQSESDLERELIQDLRNQGYEFISVKSQSAMLANVREQLQNLNGVVFNDSEWRRFTEQYLDNPSDGILDKTRKIHIDYICDFIFDDERLENIYLIDKKNLMRNKVQIIQQFEQAGSHANRYDVTILVNGLPLVQIELKKRGVAIREAFNQIHRYSKESFNSENSLFKYLQLFVISNGTDTRYFANTTKRDKNSFDFTMNWAKSDNTLIKDLKDFTATCFQKHTLLNVLVNYSVFDSSQTLLVMRPYQIAATERILWKIKSSFTAKNWSKPESGGYIWHTTGSGKTLTSFKAARLATELDFIDKVFFVVDRKDLDYQTMKEYQRFSPDSVNGSENTAGLKRNLDKDDNKIIVTTIQKLNNLMKAESDLPVYNQQVVFIFDECHRSQFGEAQKNLKKKFKRYYQFGFTGTPIFPENALGSETTASVFGRELHSYVITDAIRDEKVLKFKVDYNDVRPQFKSLETETDEKKLSAAENQQAFLHPMRIQEITQYILNNFRQKTHRTFPGSKGFNAMLAVSSVDAAKAYYATFKRLQEEAANKSATYKPLRIATIFSFAANEEQNAIGEISDETFDTSAMDSSAKEFLDAAIREYNSHFKTNFSTDSNGFQNYYRDLAQRVKNQDIDLLIVVGMFLTGFDAPTLNTLFVDKNLRYHGLMQAFSRTNRIYDATKTFGNIVTFRDLERSTIDAITLFGDKNTKNVVLEKSYTEYMEGFTDAATGEAKRGFMTVVSELEQRFPDPTSIESEKEKKDFVKLFGEYLRAENILQNYDEFATLKALQQIDLSDPVAVEKFKAEHYVDDEKFAELQTIRLPADRKIQDYRSAYNDIRDWQRREKEAEKKEKSTTDWDDVVFEVDLLKSQEINLDYILGLIFEHNRQNKGKGEMIEEVKRLIRSSLGNRAKEGLVVDFIQQTNLDDLPDKASIIDAFFTFAQREQQREAEALIKEENLNEDAAKRYIRTSLKREYATENGTELNETLPKLSPLNPQYKTKKQAVFQKIVSFIEKFKGVGGKI
With B1 the mean lifetime of a DNA translocation event, R1 complex (one HsdR on the MTase), magnetic tweezers was 0.95 s.
